Data from the supplement of paper PMC11811203.

B1: THAP1; numbered along this chain (parent)
chain: MVQSCSAYGCKNRYDKDKPVSFHKFPLTRPSLCKEWEAAVRRKNFKPTKYSSICSEHFTPDCFKRECNNKLLKENAVPTIFLCTEPHDKKEDLLEPQEQLPPPPLPPPVSQVDAAIGLLMPPLQTPVNLSVFCDHNYTVEDTMHQRKRIHQLEQQVEKLRKKLKTAQQRCRRQERQLEKLKEVVHFQKEKDDVSERGYVILPNDYFEIVEVPA

Variants of: B1
Test: THAP1 transcriptional activity (GFP+/GFP- enrichment relative to wild-type constructs) (ratio to WT); higher = more THAP1 activity (PSMB5 reporter activation)
Details: with PSMB5 promoter-GFP reporter
In short: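 A lentiviral site-saturation library covering residues 2–213 of human THAP1, with each position changed to all 20 amino acids, was transduced in duplicate at MOI ~0.3 into THAP1-knockout HEK-293T cells with mClover3 knocked in at endogenous PSMB5. Five days later, BFP+ cells were sorted into GFP-dim and GFP-bright bins and variants were counted by Illumina sequencing of genomic DNA amplicons. Activity is the bright/dim read fold change averaged over replicates and divided by the mean of wild-type synonymous constructs.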

Variant | THAP1 transcriptional activity
P107H | 0.688
P107W | 0.215
P107T | 1.04
S21F | 0.11
S21A | 0.0835
S21P | 0.0702
S21E | 0.0854
G117L | 0.288
G117T | 0.51
G117E | 1.6
S194W | 1.09
T48D | 0.113
D192M | 1.27
D192Q | 1.23
N136M | 0.134
N136C | 0.164
N136Y | 0.187
N136D | 0.153
Q167D | 0.239
Q167S | 0.649
Q167F | 0.28
P122F | 0.156
P122Q | 0.769
K161Y | 0.195

Variant | THAP1 transcriptional activity
K161P | 0.172
N12T | 0.097
N12Q | 0.22
N12S | 0.283
Y198T | 1.13
A115Y | 0.256
A115N | 0.982
A115K | 0.658
A115R | 0.409
A115H | 0.76
F58V | 0.115
F58W | 0.143
F58T | 0.0696
F58E | 0.149
F58N | 0.0722
Y137R | 0.214
Y137C | 0.147
S110M | 0.337
T79E | 0.254
C170H | 0.411
C170Y | 0.702
M143F | 0.339
M143T | 1.19
M143D | 1.76

Variant | THAP1 transcriptional activity
M143N | 0.961
H150Q | 1.21
Y50P | 0.103
Y50N | 0.389
D17V | 0.314
D17L | 0.861
I80V | 0.963
T28I | 0.198
Q151E | 0.7
Q151T | 0.796
R146P | 0.535
R146W | 0.39
R146S | 1
Q176I | 0.557
D204I | 0.437
D204H | 0.501
D204K | 0.75
D61M | 0.207
D61Q | 0.282
K49G | 0.123
K49V | 0.257
K49N | 0.177
E195L | 0.714
E195A | 0.865

Variant | THAP1 transcriptional activity
K16Q | 0.164
K16C | 0.121
K16I | 0.197
K16P | 0.334
K16R | 0.661
K16E | 0.125
K16L | 0.129
E66P | 0.346
E66I | 0.457
L159P | 0.158
I149G | 0.197
Y8T | 0.785
Y8W | 1.08
V40N | 0.136
E210W | 0.686
E210C | 1.03
R42I | 0.181
R42V | 0.136
R160F | 0.252
R160C | 0.269
P86G | 0.464
A213H | 0.644
A213G | 0.677
A213Y | 0.711

Variant | THAP1 transcriptional activity
C67Q | 0.239
F81P | 0.275
S52G | 0.141
S52E | 0.0459
R196V | 1.54
R196Q | 1.73
P212K | 0.974
P212W | 0.968
Q155H | 0.765
P106W | 0.703
P30K | 0.428
P30A | 0.476
L180M | 0.868
S4N | 0.14
S4D | 0.154
R13D | 0.115
R13P | 0.0852
C62I | 0.09
C62A | 0.523
C62E | 0.143
C62M | 0.591
P78I | 0.211
P78Q | 0.241
E95L | 0.979

Variant | THAP1 transcriptional activity
E95S | 1.02
E95N | 1.31
E95Q | 1.81
E95M | 0.897
V20K | 0.0912
V20S | 0.0781
T142E | 1.23
V109Y | 0.304
N44G | 1.06
N44M | 0.177
N44Y | 0.297
N44C | 0.476
T165Q | 0.517
K164Q | 0.304
R169C | 0.292
R169H | 0.531
K89T | 1.3
K89Q | 1.32
K89G | 1.41
A39G | 0.131
K64A | 0.0797
K64M | 0.112
K64H | 0.0785
Q111A | 0.608

Variant | THAP1 transcriptional activity
K46C | 0.377
C5E | 0.115
C5A | 0.147
E37L | 1.16
E37H | 0.454
E37A | 0.542
Q99R | 1.3
A76Y | 0.191
A76K | 0.428
H144R | 0.709
N75K | 0.45
N75V | 0.214
N75Y | 0.177
N75D | 0.507
S51W | 0.122
F186G | 1.63
F186R | 1.31
C54V | 0.0511
A7S | 0.122
A7P | 0.0917
P47A | 0.896
E157Y | 0.488
V193K | 0.694
